According to article PMC10071816 (bioRxiv, 2023):

Legend:
[1] = target: CCT1, subunit of human TRiC (human, UniProt P17987 1-556); assay: cross-linking
[2] = target: T1, CCT2, subunit of human TRiC (human, UniProt P78371 1-535); assay: cross-linking
T1 sequence: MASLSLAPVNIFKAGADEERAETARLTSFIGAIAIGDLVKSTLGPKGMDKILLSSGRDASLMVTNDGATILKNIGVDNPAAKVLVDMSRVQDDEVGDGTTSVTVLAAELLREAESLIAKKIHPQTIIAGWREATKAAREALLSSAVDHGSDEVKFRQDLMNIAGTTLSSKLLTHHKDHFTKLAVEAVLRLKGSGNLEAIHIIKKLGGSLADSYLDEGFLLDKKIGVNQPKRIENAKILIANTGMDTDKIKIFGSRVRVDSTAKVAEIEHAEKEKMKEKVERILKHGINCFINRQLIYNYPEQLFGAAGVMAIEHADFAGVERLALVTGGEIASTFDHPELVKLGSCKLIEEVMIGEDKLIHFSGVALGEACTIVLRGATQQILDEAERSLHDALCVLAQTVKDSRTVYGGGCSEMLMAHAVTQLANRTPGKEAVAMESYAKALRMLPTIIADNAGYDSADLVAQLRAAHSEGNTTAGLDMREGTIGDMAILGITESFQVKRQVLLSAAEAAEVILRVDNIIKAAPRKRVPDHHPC

[3] = target: CCT5, subunit of human TRiC (human, UniProt P48643 1-541); assay: cryo-EM structure
[4] = target: human chaperonin TCP-1 ring complex (TRiC/CCT) (human) (UniProt P17987); assay: cryo-EM structure

Sequence of CCT1, subunit of human TRiC (P17987 whole entry): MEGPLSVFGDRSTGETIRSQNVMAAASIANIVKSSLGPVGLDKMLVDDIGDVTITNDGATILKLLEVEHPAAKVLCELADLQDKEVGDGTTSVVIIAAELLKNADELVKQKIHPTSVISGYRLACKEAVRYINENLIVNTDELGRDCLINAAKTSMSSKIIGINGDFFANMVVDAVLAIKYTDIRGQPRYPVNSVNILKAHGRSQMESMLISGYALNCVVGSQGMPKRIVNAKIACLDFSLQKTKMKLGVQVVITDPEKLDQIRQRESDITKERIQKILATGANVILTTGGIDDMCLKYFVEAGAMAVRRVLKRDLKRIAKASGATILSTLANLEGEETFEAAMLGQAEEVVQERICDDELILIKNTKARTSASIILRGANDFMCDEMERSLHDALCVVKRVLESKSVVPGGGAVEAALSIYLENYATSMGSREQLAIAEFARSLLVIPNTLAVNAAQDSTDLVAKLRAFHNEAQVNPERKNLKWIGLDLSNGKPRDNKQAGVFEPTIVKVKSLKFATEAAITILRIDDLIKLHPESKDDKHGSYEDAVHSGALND
Sequence of CCT5, subunit of human TRiC (P48643 whole entry): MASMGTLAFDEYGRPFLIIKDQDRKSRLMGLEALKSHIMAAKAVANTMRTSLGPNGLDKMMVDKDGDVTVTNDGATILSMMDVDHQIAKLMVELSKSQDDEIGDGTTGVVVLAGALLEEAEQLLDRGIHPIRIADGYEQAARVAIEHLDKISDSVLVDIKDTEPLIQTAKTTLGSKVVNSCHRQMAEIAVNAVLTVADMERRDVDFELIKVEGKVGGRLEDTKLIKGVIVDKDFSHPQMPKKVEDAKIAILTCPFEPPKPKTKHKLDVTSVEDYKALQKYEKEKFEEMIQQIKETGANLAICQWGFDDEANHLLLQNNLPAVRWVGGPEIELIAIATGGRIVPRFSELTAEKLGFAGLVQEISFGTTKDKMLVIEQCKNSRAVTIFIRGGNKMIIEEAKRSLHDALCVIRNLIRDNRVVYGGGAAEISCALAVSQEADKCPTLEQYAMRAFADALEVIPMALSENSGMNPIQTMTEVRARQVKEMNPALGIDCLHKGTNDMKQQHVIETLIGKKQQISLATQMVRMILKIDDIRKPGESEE

binding result [1]: binds | binding result [2]: binds | binding result [3]: binds | percent of particles (3D classification) [4]: 22.9% | percent of particles with PhLP2A in both chambers [4]: 9.5% | percent of particles with PhLP2A in one chamber [4]: 14%
B1: phosducin-like protein PhLP2A, full length (natural protein)
chain: MQDPNADTEWNDILRKKGILPPKESLKELEEEAEEEQRILQQSVVKTYEDMTLEELEDHEDEFNEEDERAIEMYRRRRLAEWKATKLKNKFGEVLEISGKDYVQEVTKAGEGLWVILHLYKQGIPLCALINQHLSGLARKFPDVKFIKAISTTCIPNYPDRNLPTIFVYLEGDIKAQFIGPLVFGGMNLTRDELEWKLSESGAIMTDLEENPKKPIEDVLLSSVRRSVLMKRDSDSEGD
